Reference: publication PMC5339286, “A Novel Soybean ERF Transcription Factor, GmERF113, Increases Resistance to Phytophthora sojae Infection in Soybean”
Positions count from the first letter of the chain named.

B1: GCC probe (GCC-box) (dsDNA)
DNA 1: ATCCATAAGAGCCGCCACTAAAATAAGACCGATCAA
DNA 2: TTGATCGGTCTTATTTTAGTGGCGGCTCTTATGGAT
B2: mGCC probe (mutated GCC-box) (dsDNA)
DNA 1: B1 DNA 1 with G11T, G14T
DNA 2: B1 DNA 2 with C23A, C26A

Molecular target: GmERF113 (Glycine max (soybean) cv. Suinong 10, UniProt I1ML94 1-260)
Experiment: EMSA; EMSA as described by Liu et al. (2006); buffer, salt, pH and temperature not stated
Conditions: protein: recombinant

GmERF113, sequence (I1ML94 entry or part of it): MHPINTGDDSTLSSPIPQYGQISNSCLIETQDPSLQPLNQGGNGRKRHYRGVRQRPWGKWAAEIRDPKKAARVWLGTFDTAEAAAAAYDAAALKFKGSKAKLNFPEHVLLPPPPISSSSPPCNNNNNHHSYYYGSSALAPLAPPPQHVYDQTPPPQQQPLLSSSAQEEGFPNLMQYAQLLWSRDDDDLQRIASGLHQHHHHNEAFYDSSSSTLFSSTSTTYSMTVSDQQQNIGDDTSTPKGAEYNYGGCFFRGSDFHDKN

Row | Binder | binding result
1 | B1 | binds
2 | B2 | no binding
